Reference: patent US20220204580A1 (AstraZeneca / MedImmune, published 2022)
Numbered stars: 1 amine (or outer) side, 2 acyl side, 3 side chain; on linkers, the order of the positions; unused ones are H or OH. Bridge positions count the residues as written; N and C are the ends. Square brackets hold non-standard residues; d marks the D form. Side chains are listed from the residue outwards. Ends that are not written are not given here. * marks the point of attachment. C20 diacid = O=C(O)CCCCCCCCCCCCCCCCCCC(=O)*; C18 diacid = O=C(O)CCCCCCCCCCCCCCCCC(=O)*; γGlu = O=C(O)[C@H](CCC(=O)[*:2])N[*:1]; αMeF = C[C@](N)(Cc1ccccc1)C(=O)O; AEEA = NCCOCCOCC(=O)O

T1: human amylin receptor (calcitonin receptor co-expressed with receptor activity modifying protein, RAMP3) (human, UniProt P30988 25-474; O60896 24-148)
T1 sequence (looked up) 1: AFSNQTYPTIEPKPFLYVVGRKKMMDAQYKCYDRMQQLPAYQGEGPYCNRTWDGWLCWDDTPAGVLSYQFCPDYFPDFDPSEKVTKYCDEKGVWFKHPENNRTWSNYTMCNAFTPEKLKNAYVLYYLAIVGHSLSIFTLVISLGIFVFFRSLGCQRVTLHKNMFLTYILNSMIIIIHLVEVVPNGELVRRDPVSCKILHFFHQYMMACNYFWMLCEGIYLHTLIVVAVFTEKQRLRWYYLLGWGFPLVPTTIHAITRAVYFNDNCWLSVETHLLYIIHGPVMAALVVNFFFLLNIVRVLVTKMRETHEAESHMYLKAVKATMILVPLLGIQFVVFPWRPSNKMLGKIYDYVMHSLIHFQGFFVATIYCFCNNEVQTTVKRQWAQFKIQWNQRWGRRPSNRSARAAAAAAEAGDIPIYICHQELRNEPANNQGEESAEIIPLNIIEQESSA
T1 sequence (looked up) 2: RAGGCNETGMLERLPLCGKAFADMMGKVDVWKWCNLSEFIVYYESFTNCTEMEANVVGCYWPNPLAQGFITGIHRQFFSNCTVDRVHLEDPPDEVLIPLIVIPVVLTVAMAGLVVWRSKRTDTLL

T2: human calcitonin receptor (human, UniProt P30988 25-474)
T2 sequence (looked up): T1 sequence (looked up) 1

T3: rat amylin receptor (calcitonin receptor co-expressed with receptor activity modifying protein, RAMP3) (rat, UniProt P32214 25-516; Q9JJ73 23-147)
T3 sequence (looked up) 1: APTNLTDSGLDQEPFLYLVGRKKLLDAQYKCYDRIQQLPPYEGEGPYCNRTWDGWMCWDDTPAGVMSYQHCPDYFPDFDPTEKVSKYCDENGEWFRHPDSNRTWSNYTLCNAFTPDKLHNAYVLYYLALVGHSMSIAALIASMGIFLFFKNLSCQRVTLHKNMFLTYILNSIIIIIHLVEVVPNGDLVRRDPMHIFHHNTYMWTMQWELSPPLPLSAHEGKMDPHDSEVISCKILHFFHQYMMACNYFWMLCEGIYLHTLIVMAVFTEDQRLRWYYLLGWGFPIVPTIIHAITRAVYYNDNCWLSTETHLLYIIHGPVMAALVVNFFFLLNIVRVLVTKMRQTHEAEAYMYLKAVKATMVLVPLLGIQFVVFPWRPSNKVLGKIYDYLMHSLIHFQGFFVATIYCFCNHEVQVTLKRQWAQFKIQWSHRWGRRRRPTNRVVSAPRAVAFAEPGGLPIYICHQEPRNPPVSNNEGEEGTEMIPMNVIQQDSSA
T3 sequence (looked up) 2: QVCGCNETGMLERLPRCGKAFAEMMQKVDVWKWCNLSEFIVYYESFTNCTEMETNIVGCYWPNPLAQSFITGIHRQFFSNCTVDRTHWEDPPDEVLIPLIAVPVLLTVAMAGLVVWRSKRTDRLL

T4: rat calcitonin receptor (rat, UniProt P32214 25-516)
T4 sequence (looked up): T3 sequence (looked up) 1

B1: Peptide 114 (SEQ ID NO: 114) (peptide)
peptide: K([γGlu-γGlu-C20 diacid])CNTATCATQRLANFLVHSSNNFGPILPPTNVGSRTY-NH2
modifications: disulfide 2-7; N-terminus assumed
SMILES: CC[C@H](C)[C@H](NC(=O)[C@@H]1CCCN1C(=O)CNC(=O)[C@H](Cc1ccccc1)NC(=O)[C@H](CC(N)=O)NC(=O)[C@H](CC(N)=O)NC(=O)[C@H](CO)NC(=O)[C@H](CO)NC(=O)[C@H](Cc1c[nH]cn1)NC(=O)[C@@H](NC(=O)[C@H](CC(C)C)NC(=O)[C@H](Cc1ccccc1)NC(=O)[C@H](CC(N)=O)NC(=O)[C@H](C)NC(=O)[C@H](CC(C)C)NC(=O)[C@H](CCCNC(=N)N)NC(=O)[C@H](CCC(N)=O)NC(=O)[C@@H](NC(=O)[C@H](C)NC(=O)[C@@H]1CSSC[C@H](NC(=O)[C@@H](N)CCCCNC(=O)CC[C@H](NC(=O)CC[C@H](NC(=O)CCCCCCCCCCCCCCCCCCC(=O)O)C(=O)O)C(=O)O)C(=O)N[C@@H](CC(N)=O)C(=O)N[C@@H]([C@@H](C)O)C(=O)N[C@@H](C)C(=O)N[C@@H]([C@@H](C)O)C(=O)N1)[C@@H](C)O)C(C)C)C(=O)N[C@@H](CC(C)C)C(=O)N1CCC[C@H]1C(=O)N1CCC[C@H]1C(=O)N[C@H](C(=O)N[C@@H](CC(N)=O)C(=O)N[C@H](C(=O)NCC(=O)N[C@@H](CO)C(=O)N[C@@H](CCCNC(=N)N)C(=O)N[C@H](C(=O)N[C@@H](Cc1ccc(O)cc1)C(N)=O)[C@@H](C)O)C(C)C)[C@@H](C)O
B2: Peptide 12 (SEQ ID NO: 12) (peptide)
peptide: K([γGlu-C18 diacid])KCNTATCATQRLAEFLRHSSNN[αMeF]GPILPPTNVGSNTY-NH2
modifications: disulfide 3-8; N-terminus assumed
SMILES: CC[C@H](C)[C@H](NC(=O)[C@@H]1CCCN1C(=O)CNC(=O)[C@](C)(Cc1ccccc1)NC(=O)[C@H](CC(N)=O)NC(=O)[C@H](CC(N)=O)NC(=O)[C@H](CO)NC(=O)[C@H](CO)NC(=O)[C@H](Cc1c[nH]cn1)NC(=O)[C@H](CCCNC(=N)N)NC(=O)[C@H](CC(C)C)NC(=O)[C@H](Cc1ccccc1)NC(=O)[C@H](CCC(=O)O)NC(=O)[C@H](C)NC(=O)[C@H](CC(C)C)NC(=O)[C@H](CCCNC(=N)N)NC(=O)[C@H](CCC(N)=O)NC(=O)[C@@H](NC(=O)[C@H](C)NC(=O)[C@@H]1CSSC[C@H](NC(=O)[C@H](CCCCN)NC(=O)[C@@H](N)CCCCNC(=O)CC[C@H](NC(=O)CCCCCCCCCCCCCCCCC(=O)O)C(=O)O)C(=O)N[C@@H](CC(N)=O)C(=O)N[C@@H]([C@@H](C)O)C(=O)N[C@@H](C)C(=O)N[C@@H]([C@@H](C)O)C(=O)N1)[C@@H](C)O)C(=O)N[C@@H](CC(C)C)C(=O)N1CCC[C@H]1C(=O)N1CCC[C@H]1C(=O)N[C@H](C(=O)N[C@@H](CC(N)=O)C(=O)N[C@H](C(=O)NCC(=O)N[C@@H](CO)C(=O)N[C@@H](CC(N)=O)C(=O)N[C@H](C(=O)N[C@@H](Cc1ccc(O)cc1)C(N)=O)[C@@H](C)O)C(C)C)[C@@H](C)O
B3: Peptide 115 (SEQ ID NO: 115) (peptide)
peptide: K([γGlu-γGlu-C20 diacid])CNTATCATQRLANFLVHSSPNFPAILSPTNVGSNTY-NH2
modifications: disulfide 2-7; N-terminus assumed
SMILES: CC[C@H](C)[C@H](NC(=O)[C@H](C)NC(=O)[C@@H]1CCCN1C(=O)[C@H](Cc1ccccc1)NC(=O)[C@H](CC(N)=O)NC(=O)[C@@H]1CCCN1C(=O)[C@H](CO)NC(=O)[C@H](CO)NC(=O)[C@H](Cc1c[nH]cn1)NC(=O)[C@@H](NC(=O)[C@H](CC(C)C)NC(=O)[C@H](Cc1ccccc1)NC(=O)[C@H](CC(N)=O)NC(=O)[C@H](C)NC(=O)[C@H](CC(C)C)NC(=O)[C@H](CCCNC(=N)N)NC(=O)[C@H](CCC(N)=O)NC(=O)[C@@H](NC(=O)[C@H](C)NC(=O)[C@@H]1CSSC[C@H](NC(=O)[C@@H](N)CCCCNC(=O)CC[C@H](NC(=O)CC[C@H](NC(=O)CCCCCCCCCCCCCCCCCCC(=O)O)C(=O)O)C(=O)O)C(=O)N[C@@H](CC(N)=O)C(=O)N[C@@H]([C@@H](C)O)C(=O)N[C@@H](C)C(=O)N[C@@H]([C@@H](C)O)C(=O)N1)[C@@H](C)O)C(C)C)C(=O)N[C@@H](CC(C)C)C(=O)N[C@@H](CO)C(=O)N1CCC[C@H]1C(=O)N[C@H](C(=O)N[C@@H](CC(N)=O)C(=O)N[C@H](C(=O)NCC(=O)N[C@@H](CO)C(=O)N[C@@H](CC(N)=O)C(=O)N[C@H](C(=O)N[C@@H](Cc1ccc(O)cc1)C(N)=O)[C@@H](C)O)C(C)C)[C@@H](C)O

Target: T1, human amylin receptor (calcitonin …)
Assay: cell-based or functional assay

Row | Binder | EC50 (cAMP production) [nM] | Ratio (EC50 hCTR / EC50 hAMYR3)
1 | B1 | 1.32 | 12
2 | {C18 diacid-γGlu}-CNTATCATQRLAEFLRHSSNN[αMeF]GPILPPTNVGSNTY-NH2 (disulfide 1-6; numbers in words are those of the source; also: K1 deleted) [Peptide 10 (SEQ ID NO: 10)] | 0.183 | 15
3 | {C20 diacid-γGlu}-KCNTATCATQRLANFLVHSSNNFGPILPPTNVGSNTY-NH2 (disulfide 2-7) [Peptide 112 (SEQ ID NO: 112)] | 0.861 | 2
4 | B2 | 0.158 | 8
5 | B3 | 0.703 | 11
6 | {C20 diacid-γGlu-AEEA-AEEA}-KCNTATCATQRLANFLVHSSNNFGPILPPTNVGSNTY-NH2 (disulfide 2-7) [Peptide 113 (SEQ ID NO: 113)] | 1.17 | 16

Target: T2, human calcitonin receptor
Assay: cell-based or functional assay

Row | Binder | EC50 (cAMP production) [nM]
7 | B1 | 15.8
8 | {C18 diacid-γGlu}-CNTATCATQRLAEFLRHSSNN[αMeF]GPILPPTNVGSNTY-NH2 (disulfide 1-6; numbers in words are those of the source; also: K1 deleted) [Peptide 10 (SEQ ID NO: 10)] | 2.73
9 | {C20 diacid-γGlu}-KCNTATCATQRLANFLVHSSNNFGPILPPTNVGSNTY-NH2 (disulfide 2-7) [Peptide 112 (SEQ ID NO: 112)] | 1.33
10 | B2 | 1.22
11 | B3 | 7.65
12 | {C20 diacid-γGlu-AEEA-AEEA}-KCNTATCATQRLANFLVHSSNNFGPILPPTNVGSNTY-NH2 (disulfide 2-7) [Peptide 113 (SEQ ID NO: 113)] | 18.5

Target: T3, rat amylin receptor (calcitonin …)
Assay: cell-based or functional assay

Row | Binder | EC50 (cAMP production) [nM]
13 | B1 | 0.0122
14 | {C18 diacid-γGlu}-CNTATCATQRLAEFLRHSSNN[αMeF]GPILPPTNVGSNTY-NH2 (disulfide 1-6; numbers in words are those of the source; also: K1 deleted) [Peptide 10 (SEQ ID NO: 10)] | 0.0121
15 | {C20 diacid-γGlu}-KCNTATCATQRLANFLVHSSNNFGPILPPTNVGSNTY-NH2 (disulfide 2-7) [Peptide 112 (SEQ ID NO: 112)] | 0.016
16 | B2 | 0.005
17 | B3 | 0.0226
18 | {C20 diacid-γGlu-AEEA-AEEA}-KCNTATCATQRLANFLVHSSNNFGPILPPTNVGSNTY-NH2 (disulfide 2-7) [Peptide 113 (SEQ ID NO: 113)] | 0.0326

Target: T4, rat calcitonin receptor
Assay: cell-based or functional assay

Row | Binder | EC50 (cAMP production) [nM]
19 | B1 | 4.87
20 | {C18 diacid-γGlu}-CNTATCATQRLAEFLRHSSNN[αMeF]GPILPPTNVGSNTY-NH2 (disulfide 1-6; numbers in words are those of the source; also: K1 deleted) [Peptide 10 (SEQ ID NO: 10)] | 2.78
21 | {C20 diacid-γGlu}-KCNTATCATQRLANFLVHSSNNFGPILPPTNVGSNTY-NH2 (disulfide 2-7) [Peptide 112 (SEQ ID NO: 112)] | 0.259
22 | B2 | 0.107
23 | B3 | 22.6
24 | {C20 diacid-γGlu-AEEA-AEEA}-KCNTATCATQRLANFLVHSSNNFGPILPPTNVGSNTY-NH2 (disulfide 2-7) [Peptide 113 (SEQ ID NO: 113)] | 10.4
